Patent US20020114780A1, “Methods of increasing distribution of therapeutic agents” (priority 2000, published 2002)

Tests used:
[1] = assay type: in vivo; settings: for increase in Vd when co-infused with heparin: 5 μg protein in 5 μl, 0.2 μl/min, with heparin (18 μg) vs infused alone; for Vd/Vi ratio: low volume (5 μl) infusion, apparently with heparin co-infusion (FIG. 2b)
Procedure: (§1) The animals were anesthetized with ketamine (10 mg/kg) and xylazine (3 mg/Kg) via intraperitoneal injection and placed in a Kopf small animal stereotactic frame. A sagittal incision was made through the skin and a burr hole was placed into the skull with a twist drill. The cannula coordinates were: 0.5 mm anterior to bregma, 2.8 mm to the right of bregma, and 5 mm below the dura.
(§2) The infusion apparatus consisted of a hydraulic drive serially connected to a syringe pump. This depressed the plunger of one of two 250 μl Hamilton syringes connected by cannulas made from polyetheretherketone (PEEK) tubing (inner diameter 250 μm) and filled with distilled water. One of the 250 μl Hamilton syringes was secured to the stereotactic frame and was contiguous with an infusate-filled 10 or 50 μl Hamilton syringe. Since the system was non-compliant (zero dead space), the compression of the syringe pump of the infusion apparatus led to the measured release of infusate from the 10 or 50 μl Hamilton syringe in a uniform fashion. All infusions were performed with a 32 g cannula at 0.2 μl/min (6).
The vehicle was 4% mannitol in 10 mM HEPES. […]
(§3) The brains were cut into 40 μm serial coronal sections on a cryostat. Frozen sections were collected in a series in antifreeze solutions and stored at −70° C. Every 12th section was stained for immunohistochemistry.
Sections were washed in phosphate buffered saline (PBS) and incubated in 3% H2O2 for 20 minutes to block endogenous peroxidase activity. […] The sections were then incubated for 1 hour in biotinylated anti-mouse IgG secondary antibody (Vector Labs, 1:300). Antibody binding was visualized with streptavidin horseradish peroxidase (Vector Labs, 1:300) and VIP chromogen (Vector Labs). Sections were then coverslipped and examined under light microscopy. Vd was measured using NIH image analysis software.
The volume of distribution of BSA and the GDNF family of trophic factors was analyzed using a Macintosh-based image analysis system. Images of stained tissue slices were captured by a CCD camera using Adobe Photoshop software. Using NIH Image Analysis software, the area of distribution of infused protein in each tissue section was automatically determined using a threshold of 50% of the maximal stained optical density. The sum of the areas of infusion was used to determine the Vd in each striatum.

[2] = Histological examination of infused brains for hemorrhage and tissue damage; assay type: in vivo, rat; settings: heparin 0.5 units/μl, low volume studies
Procedure: Studies were conducted to establish whether CED could be used to distribute trophic factors within the GDNF family over volumes that might be relevant to larger primate brains. High volume infusions (20 μl) of NTN with heparin were able to cover significant volumes of the rat brain (FIG. 3). […] Maximum Vd attained following co-infusion with heparin was 37.3 mm^3, compared to a maximum Vd of 11.0 mm^3 in control animals (FIG. 3). At this infusion volume, in 4 out of 6 animals in which NTN was co-infused with heparin, the striatum was completely stained, as opposed to none of the subjects infused with NTN alone. There was no evidence of hemorrhage (H&E stain) in any of the specimens following the high volume infusions.
All brains had well demarcated areas of antibody staining following immunohistochemistry. In all brains, there was no evidence of tissue damage, with the exception of the needle track and some non-specific drill-induced cortical lesions. There was no evidence of hemorrhage in any animal at 0 or 4 days after infusion.
This emphasizes the importance of receptor binding in drug distribution as well.

[3] = tested on: dopamine utilization; assay: Dopamine utilization: striatal DOPAC/DA ratio by HPLC 4 days after intrastriatal infusion; assay type: in vivo, rat
Procedure: In the study analyzing dopamine metabolism following trophic factor administration, the animals were infused with 5 μg of NTN in 5 μl of vehicle with and without heparin (2.5 units) and sacrificed after 4 days. The vehicle was 4% mannitol in 10 mM HEPES. After completing infusion, the cannula was withdrawn at 1 mm/minute. Following the procedure, the animals used for immunohistochemical analysis were intracardially perfused with 4% paraformaldehyde. Brains were harvested and immersed overnight in 4% paraformaldehyde. The brains were cryoprotected through immersion in graded sucrose solution (20-30%) and frozen at […]. Animals to be used in HPLC studies were euthenized and the brains were harvested and fresh frozen at −70°.
Animals were sacrificed 4 days after intrastriatal infusion of 5 μl vehicle with 18 μg of heparin, 5 μg of NTN in 5 μl of vehicle or 5 μg of NTN in 5 μl of vehicle with 18 μg of heparin. After decapitation, the brains were rapidly removed and chilled in ice for 4 minutes. They were sliced 1 mm anterior and 2 mm posterior to the injection site using a chilled plastic brain mold. For biochemical studies, frozen punches from the striatum were taken from the injected and uninjected sides for comparison. […] Dopamine (DA), serotonin (5-HT) and their metabolites were measured by HPLC using Ultrasphere C-18 ion pair column, 5μ, 4.6 mm×25 cm (Beckman 235329): a Waters 717 plus autosampler, Waters 510 pump at 0.8 ml/min, and an amperometric electrochemical detector (EiCom CB-100) set at 0.78 V. The mobile phase contained 2-1 deionized water, 2.8 g L-heptanesulfonic acid sodium salt, 0.17 g EDTA, 20 ml triethylamine and 50 ml acetonitrile, pH was adjusted to 2.6 with 13 ml of 85% phosphoric acid. The results were recorded and analyzed with Waters Millenium 2010 Chromatography Manager software. Protein concentration in the tissue pellet was determined using the BCA Protein Assay Kit (Pierce #23225). The results are expressed as nM/hr/mg of protein.

[4] = CED high volume (20 μl) NTN intrastriatal infusion, volume of distribution by immunohistochemistry; assay type: in vivo, rat
Procedure: as §1, §2
The vehicle was 4% mannitol in 10 mM HEPES. In the high volume experiment, 50 μg of NTN in 20 μl of vehicle with (n=6) and without (n=6) heparin (71 μg) was delivered into the striatum.
as §3
Sections were washed in phosphate buffered saline (PBS) and incubated in 3% H2O2 for 20 minutes to block endogenous peroxidase activity. […] Vd was measured using NIH image analysis software.
The volume of distribution of BSA and the GDNF family of trophic factors was analyzed using a Macintosh-based image analysis system. […] Using NIH Image Analysis software, the area of distribution of infused protein in each tissue section was automatically determined using a threshold of 50% of the maximal stained optical density. […]

Artemin
increase in Vd when co-infused with heparin [1]: greater than 10 fold

heparin [reference compound]
gross or microscopic hemorrhage [2]: no evidence of gross or microscopic hemorrhage
DOPAC/DA levels compared to the uninjected (left) striatum ([3]; 5 μl vehicle with 18 μg heparin, 4 days): no change

B1: GDNF (protein, UniProt P39905 78-211, looked up)
Glial cell line-derived …: SPDKQMAVLPRRERNRQAAAANPENSRGKGRRGQRGKNRGCVLTAIHLNVTDLGLGYETKEELIFRYCSGSCDAAETTYDKILKNLSRNRRLVSDKVGQACCRPIAFDDDLSFLDDNLVYHILRKHSAKRCGCI
notes: glial cell line-derived neurotrophic factor, trophic factor provided by Genentech
increase in Vd when co-infused with heparin [1]: 5 fold
Vd/Vi ratio [1]: 5.0
effect of heparin co-infusion on Vd ([1]; rat, in vivo): significantly increased

B2: Neurturin (protein, UniProt Q99748 96-197, looked up)
Neurturin: ARLGARPCGLRELEVRVSELGLGYASDETVLFRYCAGACEAAARVYDLGLRRLRQRRRLRRERVRAQPCCRPTAYEDEVSFLDAHSRYHTVHELSARECACV
notes: trophic factor of the GDNF ligand family
animals in which the striatum was completely stained ([4]; 20 μl infusion, n=6 per group): none
Maximum Vd ([4]; rat, in vivo): 11.0 mm^3
Vd ([4]; rat, in vivo): 7.7+/−1.1 mm^3
DOPAC/DA ratio ([3]; 5 μg NTN in 5 μl, with or without heparin 18 μg, 4 days after infusion, mean +/- S.E.): 146+/−14.2 percentage of the uninjected h
DOPAC/DA ratio compared to the vehicle+heparin group ([3]; 4 days after right striatal infusion, Fisher test): significantly increased
increase in Vd when co-infused with heparin [1]: 7 fold
Vd/Vi ratio [1]: 4.6
